Source: the supplement of paper PMC9170038

Tested on: MS2 coat protein
Experiment: apparent KD of MS2 coat protein; higher = weaker reporter binding
Conditions: Eterna round: R107
Procedure: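 RNA-MaP round R107: designed RNA switches with theophylline, tryptophan, arginine or FMN aptamers are transcribed on-chip within common flanks. They are titrated with SNAP-549-labelled MS2 coat protein in RNA-MaP buffer (100 mM Tris pH 7.5, 80 mM KCl, 4 mM MgCl2), without ligand or with the indicated ligand. Median apparent KD per design.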

[1] = input ligand: theophylline 20 uM
[2] = input ligand: theophylline 2 mM
[3] = input ligand: tryptophan 2.4 mM

Row | Sequence | apparent KD of MS2 coat protein (input ligand: arginine 13.2 mM) [nM] | apparent KD of MS2 coat protein [1] [nM] | apparent KD of MS2 coat protein [2] [nM] | apparent KD of MS2 coat protein (input ligand: none) [nM] | apparent KD of MS2 coat protein [3] [nM]
1 | AGAUUCGACACGGCCGCCACUUGGAGUGGCUGCUAGCAUGUUACACAUGAGGAUCACCCAUGUCUAAGGACCGGGUGUUGAGUCU [XTryp B #24] | 30.7 | 79.2 | 63.5 | – | –
2 | GUGCGGUCUGAUGAUACCAGAUGUGGUGGGAACAUGAGGAUCACCCAUGUUGUGAGGCAGGUCCCUUGGCAGCAUGAGUGAGCUU [TheoB-ms2@32-2] | 12.4 | 229 | 156 | 119 | 72.6
3 | CACAUGAGGAUCACCCAUGUCUGAACUGAAGGAGCGCUAAACAAGGCAGGUAGGUCGCGGAAUCGUGUGUGCAUAUGCACACGCG [9.V] | 13.6 | 17.9 | 31.3 | 22 | 16.5
4 | ACAUGAGGAUCACCCAUGUGCAUGAUGAUCCGAGGACCGGUACGGCCGCCACUCGUCAUGAUGAUCUUUCAUGUUUGUCGCGCGC [Flamini II] | 62.6 | 326 | 422 | – | –
5 | AUUAACAUGAGGAUCACCCAUGUUUGUCUCCGAGGACCGGUACGGCCGCCACUCGCAGGUUGGAGUCGCUAUAUGGGCGUUCACU [theeternabot_sameState_MS2_Trp_A_42] | 31.7 | 53.5 | 64.9 | – | –
6 | UGGUCCGGCGGAAGGAGCGACAUGAGGAUCACCCAUGUCUCCCGUUAUGGGAGUUCUUUAGGUCAGGUAGGUCGCCGGCGGGUCA [#1 Exclusion - Arginine B Attempt #11 (Inspired by Omei)] | 196 | 80.6 | 221 | 51.6 | 62.9
7 | UUCUUUAAGUCGGCCGCCACUGAAACAUGAGGAUCACCCAUGUAUAUUUGGGUAUAGGUGGAUUACAGGACCGGGACUAUAGUAA [JR_ExcTryptoB_Sub022] | 31.2 | 72.3 | 104 | 66.1 | 79.6
8 | CUGCCAUGCAGAGAUACCAGUGAGCCCAGAACAUGAGGAUCACCCAUGUACGCCGCAGACCACCCUUGGCAGCUCUGCAUGGCAG [#$@$%] | 12.7 | 16.8 | 6.75 | 12.9 | 10.9
9 | UUGACAUGAGGAUCACCCAUGUUAGCGGAAGGAGCGCGGUAGUACGCAGGUAGGUCGCCGAGAACAGUGAUAGUUGUUCUCAUGU [X-ArgiA-ms2@4-1] | 27.6 | 85 | 91.2 | 76.6 | 46.9
10 | UCGCCCAGGUAGGAUUGAUGGGAUAUGGAAGGAGCGCUGAUGCCAGCAGGUAGGUCGCCAACGGACAUGAGGAUCACCCAUGUAC [Same State - Arginine A (Freestyle 5)] | 16.5 | 34.6 | 28.3 | 18.7 | 25.2
11 | UGUAUGUGAUCUGAUACCAGAGUUGAUAACCUGAGGAUCACCCUGGUAAAGGCGAAAGCCCUCCCUUGGCAGCAGAUCGCAUACU | 121 | 207 | 34.6 | 216 | 239
12 | UGUAUGUGAUCUGAUACCAGCGUUGAUAACCUGAGGAUCACCCUGGUAAGGCGAAAGCCGCGCCCUUGGCAGCAGAUCGCAUACU | 169 | 83.9 | 23.3 | 237 | 260
13 | ACAUGAGGAUCACCCAUGUUUGAUGUUCCUCGAGGACCGGUACGGCCGCCACUCGAACGAGUGGCGCGCGAGUGCGCACUCGCGC [aSa] | 11.3 | 20.1 | 13 | – | –
14 | UGUCGGCCGCCAGGAAAUGGUGGCCGACAUCGAGGACCGGUACGGCCGCCACUCGGUCGUACAUGAGGAUCACCCAUGUCGGUGA [SameState-Tryptophan_A Attempt #10 (HarryS)] | 72.9 | 508 | 942 | 496 | 1200
15 | UUUUACGGCGAUCUGGGUUUACCAGAUCGGCGAGGACCGGUACGGCCGCCACUCGUGUUUCUUUAACAUGAGGAUCACCCAUGUA [SSTA #1] | 32.4 | 77.3 | 50.9 | 38.4 | 16
16 | GUGAAGUUAGUGAGCGUUAGUCAAGCCAAACGAGGACCGGUACGGCCGCCACUCGCGCAUCGACAUGAGGAUCACCCAUGUGCCG [theeternabot_exclusion_MS2_Trp_A_12] | 18.4 | 15.7 | 17.7 | – | –
17 | ACGACAUGAGGAUCACCCAUGUGUACUGAAGGAGCGGCGGAAACGCCAGGUAGGUCGCAGUACACCUCAACCAGCGGUCCUAAGU [EAA NP+V+V2 #2] | 27 | 78.4 | 107 | 64.1 | 64.3
18 | AGUCUUAUAGGAAGGAGCGCAUACUUCACAUGAGGAUCACCCAUGUCAAGGAGUGAGUCAAUGCAGGUAGGUCGCCUAACUAAGA [Same State - Arginine B (Freestyle 10)] | 38.6 | 112 | 139 | 108 | 88.3
19 | ACAUUUAACUGAAGGAGCGUGAUUUCUACAACAUGAGGAUCACCCAUGUUCAUUACUCAUUCACAGGUAGGUCGCAGACUAAUGA [JR_SSArginiB_Sub031] | 20.9 | 26.8 | 23.5 | 20.2 | 21
20 | AAAGAUACCAGAGAUACCAGCCAAAAUUAAAAUAAAACCUCACAUGAGGAUCACCCAUGUGGCCCUUGGCAGCUCCCUUGGCAGC [#DoubbleAptamer 1] | 13.1 | 15.5 | – | – | 12.5
21 | GGUUUCGCGGGCGAUACCAGCUUGAUCGUACUGGCCUGGUACAUGAGGAUCACCCAUGUAAGCCCUUGGCAGCGCGCGCGAGACC [#1 Exclusion - Theophylline B Attempt #4 (HarryS)] | 13.3 | 16.9 | – | – | 11.7
22 | CCUGCGUUUCUUUUCUUUCGCAGGAAUGAUACCAGUAGGGAAACCUACCCUUGGCAGCAUGGGACAUGAGGAUCACCCAUGUUAU [SSThA NP+V+V2 #3] | 167 | 243 | – | – | 300
23 | CGCACAUGAGGAUCACCCAUGUGAGGGUACCGAGGACCGGUACGGCCGCCACUCGCAGGACAUGAGGAUCACCCAUGUGCCGCCG [SSTA DOUBLE!!! :-D #6] | 24.3 | 41.9 | 44.5 | 38.3 | 31
24 | AGCGACAUGCAUGAUACCAGCUACAUGAGGAUCACCCAUGUACGUCAGUAAUGACUGUGUAGCCCUUGGCAGCAUAGAGCAUGUC [Exclusion - Theophylline B (Freestyle 16)] | 14.3 | 28.8 | – | – | 17.3
25 | AGUCUUGAACGAAGGAGCGACGUACAUGAGGAUCACCCAUGUGGGAGCGAAAGCUCCCAACGUCAGGUAGGUCGCGUUCGAGACA [SS-ArgB29] | 16.9 | 24.7 | 20.4 | 17.7 | 18.5
26 | AGUCUUGAACGAAGGAGCGACGUACAUGAGGAUCACCCAUGUGUAGGAGCGAAAGCUCCACGUCAGGUAGGUCGCGUUCGAGACA [Omei Arginine B SS A v4] | 12.1 | 14.4 | 12.5 | 11.7 | 13.9
27 | GGCGCGCGCCAACAUGAGGAUCACCCAUGUCGAGGACCGGUACGGCCGCCACUCGAACGAGUGAAGCGCGCGCGCGGAGCGCCGC [Taa] | 24 | 47.8 | 47 | 37.1 | 60.1
28 | UGUAUGUGAUCUGAUACCAGUCCAACUGGUAAAACAAGAGGAUCACCCUUGUAAAAUUGGGACCCUUGGCAGCAGAUCGCAUACU | 251 | 409 | 29.8 | 472 | 733
29 | GGAUUAGAGGCGGCCGCCACUGGAACAUGAGGAUCACCCAUGUAGUGCAUGUAAUUAACCUCGAUCAGGACCGGGCCGAUAGUCA [Exclusion - Tryptophan B / A] | 51.9 | 85.2 | 67.2 | – | –
30 | AAUAGUCCUCGACAUGAGGAUCACCCAUGUCGAGGACCGGUACGGCCGCCACUCGACAUGAGGAUCACCCAUGUUGAGUGAUAAA [prototype 1] | 7.58 | 8.26 | 7.82 | – | –
